The data set is described as follows: label from the status in PepcDB records.
Regarding “SSSDVVTLTVGATPSPHAKILTYINDNLAADAGIKLDIVEYTDYVQPNTALNDGDLDANFYQTVPYLENAEKQFGYNFEAGEGIHLEPLGVFSNKHKSLDELPDGGTIGIISDTANQSRALELLATQGLVSIPEGDGDVNINTVTKLKNFDFREVEGPQLVRSLDDFDYAVINGNFAQEGGKTISGDALVVESPVDNPAVNVLVWKGDSKKVDAIAKLEKLLHSDEVKQYIEKTWSDGSVIPAF”, the protein production entry is “not failed”. As for “SSSSSSVPAYLGDEDLTQETRALISSLPKEKGWLVSEIYEFQGLWHTQAILQGILICQKRFEAKDSDIILVTNPKSGTTWLKALVFALLNRHKFPVSSSGNHPLLVTNPHLLVPFLEGVYYESPDFDFSSLPSPRLMNTHISHLSLPESVKSSSCKIVYCCRNPKDMFVSLWHFGKKLAPEETADYPIEKAVEAFCEGKFIGGPFWDHILEYWYASRENPNKVLFVTYEELKKQTEVEMKRIAEFLECGFIEEEEVREIVKLCSFESLSNLEVNKEGKLPNGIETKTFFRKGEIGGWRDTLSESLAEEIDRTIEEKFKGSGLKFSS”, the entry is “not failed”.

For the sequence “SSTQGWADGLLTDIAHVRAHISDEFLFSSASTLNEIALAADIEERTQSVDVFLGNSLFVRLVDMFGRLNTEVFTNRGASGIDGLFATASGVQRSRGKPLLMYIGDTSALYDLNSLALFSRNDLPSVLVVTNNDGGAIFDMLPVPQEHRTAYYQMPHGYQFEHAAKQFGLKYEKPTTLQMYQAMVADHLSSGQGTMLVEVQTPPSQAAELIKAFNKSLHASL”, the protein production result is reported as “failed”. In the case of “STAFFFRRMSPADKRKLLDELRSIYRTIVLEYFNTDAKVNERIDEFVSKAFFADISVSQVLEIHVELMDTFSKQLKLEGRSEDILLDYRLTLIDVIAHLCEMYRRSIPREV”, the protein production entry was “not failed”. As for “STFYVEFNRKDSDKTLAKAFQNKKIRQALSLAINRKSYVNNTLGNGSTVSKGYVSEDLAKNPTTGKDFTTDAAVPSAVDYNLTKAKKLWKEGLKEIGETKLNIKLLSDDTDAGKKATEFIQGGWEKLPGLTVTNQNVPFKTRLQRSQNGNFDTVISAWNADFTDPISFLSLFTSDNSYNNGKYDSAAYDDAVKKAEGADANNKTARWADMVAAEKQLMNDQGVIPIYQQASATLTRSNLKGIIYNTAGSNYNFKYMSVK”, the protein production entry is “failed”. Consider “STVVEIKSQDQFTQLTTTNAANKLIVLYFKAQWADPCKTMSQVLEAVSEKVRQEDVRFLSIDADEHPEISDLFEIAAVPYFVFIQNGTIVKEISAADPKEFVKSLEILSNASASLANNAKGPKSTSDEESSGSSDDEEDETEEEINARLVKLVQAAPVMLFMKGSPSEPKCGFSRQLVGILREHQIRFGFFDILRDENVRQSLKKFSDWPTFPQLYINGEFQGGLDIIKESIEEDPEYFQHALQ”, for which the protein production result is “not failed”. “SVICCAAVNCSNRQGKGEKRAVSFHRFPLKDSKRLIQWLKAVQRDNWTPTKYSFLCSEHFTKDSFSKRLEDQHRLLKPTAVPSIFHLTEKKRGAGGHGRTRRKDASKATGGVRGHSSAATGRGAAGWSPSSSGNPMAKPESRRLKQAALQGEATPRAAQEAASQEQAQQALERTPGDGLATMVAGSQGKAEASATDAGDESATSSIEGGVTDKSGISMDDFTPPGSGACKFIGSLHSYSFSSKHTRERPSVPREPIDRKRLKKDVEPSCSGSSLGPDKGLAQSPPSSSLTATPQKPSQSPSAPPADVTPKPATEAVQSEHSDASPMSINEVILSASGACKLIDSLHSYCFSSRQNKSQVCCLREQVEKKNGELKSLRQRVSRSDSQVRKLQEKLDELRRVSVPYPSSLLSPSREPPKMNPVVEPLSWMLGTWLSDPPGAGTYPTLQPFQYLEEVHISHVGQPMLNFSFNSFHPDTRKPMHRECGFIRLKPDTNKVAFVSAQNTGVVEVEEGEVNGQELCIASHSIARISFAKEPHVEQITRKFRLNSEGKLEQTVSMATTTQPMTQHLHVTYKKVTP”: the protein production entry is recorded as “not failed”. For “SVSLVGPAPWGFRLQGGKDFNMPLTISSLKDGGKASQAHVRIGDVVLSIDGISAQGMTHLEAQNKIKACTGSLNMTLQRASAAAKSEPVS”, the protein production entry was “not failed”. As for “SVTFSYLAETDYPVFTLGGSTADAARRLAASGCACAPVLDGERYLGMVHLSRLLEGRKGWPTVKEKLGEELLETVRSYRPGEQLFDNLISVAAAKCSVVPLADEDGRYEGVVSRKRILGFLAERI”, the entry is “not failed”; as for “SYASETASTQGLPALELDPEELLAQVQLLRAAVEGSRRESRELVGALERERRLNLEMRQRFERQFAAVSDQLLQLNHLQKESEALLQSLQEQLNEAELQKNAAQRELACVQRQLSLARAEADAGKRVLTTIAEKEALLRKTSQANADLQQIVMHLQAELRNSELQPSTSNASEERLHEAEIPSLADRDAYQTLQQTIEKLSAERDMWYHECARAKEESLRLQQDAERLRGLLDEQQRVHTTTQTLLQDRHLLMRRIIAALAEKYLMEKLPNQHYTQEIDSSPFQARGGTSVQEAHKHERLRRARSF”, “not failed”. Consider “SYMYDRDGSLVSEIVSDHENRVLVPFNKIPEEVKQIFLTSEDRHFYEHKGFDFMGMVPPTASNVKDKKIDQGASTITQQLSRNLYLSHERSFSRKLTELAYSYQLEKKYTKNEILEAYLNTIYFNNGVYGVGSAAQFYFSKPLKSLTVGEMAFICAIPNNPTLYDPLKHF”, for which the protein production entry is “failed”. As for “TAALSGAANLGAPLSNDFCTISLSDKWRGWDEIEEKLRAAAISGFVVVLYNCWRDYERAVDVLREERADDVPAAIVNDSGRGEAGRNLDDETETITTLGELPEHDDKVGGMGSSIVVGTHETEV”, the entry is “failed”; as for “TAQLTIEAVPSNAAEGKEVLLLVHNLPQDPRGYNWYKGETVDANRRIIGYVISNQQITPGPAYSNRETIYPNASLLMRNVTRNDTGSYTLQVIKLNLMSEEVTGQFSVHPETPKPSI”, “not failed”; as for “TATLILDDGLAIRYANPAAELLFSQSAKRIVEQSLSQLIQHASLDLALLTQPLQSGQSITDSDVTFVVDGRPLMLEVTVSPITWQRQLMLLVEMRK”, “not failed”. As for “TDVSSWIVYPSGKVYVAAVRLERVVLTCELCRPWAEVRWTKDGEEVVESPALLLQKEDTVRRLVLPAVQLEDSGEYLCEIDDESASFTVTVTEPPVRIIY”, the entry is “not failed”; as for “TEASSLVGKLETDVEIKASADKFHHMFAGKPHHVSKASPGNIQGCDLHEGDWGTVGSIVFWNYVHDGEAKVAKERIEAVEPDKNLITFRVIEGDLMKEYKSFLLTIQVTPKPGGPGSIVHWHLEYEKISEEVAHPETLLQFCVEVSKEIDEHLLAEE”, “not failed”. For “TEETAKVVPMAVITPAINQLTDQEKAEGWALLFDGKTTKGWRGAHKDAFPDHGWMVKDGELIVQKSDGSESTNGGDIVTEGEYSAFEFSVDFKITEGANSGIKYFVTEQEKQKGSAYGLEFQLLDDAKHPDAKLYTTFPGSRTLGSLYDLKKSENIHFNGVGEWNTAVVKVFPNNHVEHWLNGVKVLEYERGSKEFRDLVKGSKYADPSYNAGGAFGEAPKGHILLQDHGDEVAFRNIKVKELK”, the protein production result was “not failed”. For “TFYSVRMRASMNGSHEDGGKHISGGERLIPFHEMKHTVNALLEKGLSHSRGKPDFMQIQFEEVHESIKTIQPLPVHTNEVSCPEEGQKLARLLLEKEGVSRDVIEKAYEQIPEWSDVRGAVLFDIHTGKRMDQTKEKGVRVSRMDWPDANFEKWALHSHVPAHSRIKEALALASKVSRHPAVVAELCWSDDPDYITGYVAGKKMGYQRITAMKEYGTEEGCRVFFIDGSNDVNTYIHDLEKQPILIE”, the protein production entry is “not failed”.

As for “TGEPGASDLESRNNRLQLALQLNQRTQQEQLEHLERVRGQQDLILRLARHRYSAGNSLLEAAQLITQSACEIYKVDCASIWHLEDQRLEPIIAWYRDAQEHRQPEAIDASRFPDYLDALHASRAIDAHNAGHDPRTRALAQSMRPENKAMLDASIRVDGQVIGVLCLEQSGQPRAWQSDEIAFAGELADQFAQVITNHKRRAAASALHLFQRAVEQSA”, the protein production entry is reported as “failed”. For the sequence “TGQDAYGQVTEMQYVVYAFSKVETIFSDMYAFAALKTDGSVVTWGYSDYGGDSSSVAGQLTSGVKVIDSTSSAFAAIKEDGSVVTWGDSPYGGDSSSVAGKLTSGVKVIYSNSSAFAAVKQDGSVVTWGSYGGDSSSVAGQLTSGVKVIYSTDSEFGAFAAVKEDGSVVTWGNSPYGGDSSSVAGQLTSGVKVIYSTNNAFAAVKEDGSVVTWGDSGAGGDSSSVAGQLT”, the protein production entry was “failed”. Consider “TIFKDIYQLWFTQYKQTVKESTWVTTQRLFRLHILPIFSDYRIAKISIKDCQKAINQWFNAGLAKYHTLMNYVAKVLDYAINIDLISENPAKRVIVPVNKNDRS”, for which the protein production result is recorded as “failed”. Turning to “TISQRPYRDRVIHLLALKAYKKPELLARLQKDGVNQKDKNSLGAILQQVANLNSKDLSYTLKDYVFKELQRDWPGYSEIDRRSLESVLSRKLN”, the protein production result was “not failed”. With “TLDAPLQRRMEDLLMGWRARLPERTSAAILVVEAENMAVRAYVGSVDISDVKRFGHVDMVTALRSPGSTLKPFLYGMAMDAGLIHSESLMQDVPRRYGDYRPGNFSTGFGGPVAASSALSMSLNLPAVQLLEVYGPKRFAAELRNGGVPLTLPPLAEPNLALILGGAGSRLEDLVAGYSAFARGGRSADVRLQPQDRLRERRMMSPGAAWIIRRILSGQSRPDIDPRAELVQRPQLAWKTGTSYGFRDAWAIGVGPRFLVGVWIGRPDGTPVPGQFGLASAAPLMLQVHDVLVNRDSQRGI”, the protein production entry is on record as “failed”. Consider “TLDLPMQMAAERALADVPQQAAIVALRPSTGEVLAVAQNAPADALGPIALTGLYPPGSTFKTVTTSAALQAGAATPDTVLPCPGTENIEGRQIPNDDEFDLGAVPLHTAFARSCNTTMGRLAVGLPPDALQQAALQFGLGVDYVTPGLTTVTGNVPVADSPAARVESGIGQGQVTATPFGMAMVAASIANGSTPSPMIVQGQPGTADKTAPTVPANVTSDLRTMMRETVTGGTATALQDIPGLLGKTGTAESGNGPAHGWFVGIKDDLAFAVFIATGDSSAPAVQAAGRFLR”, for which the protein production result is on record as “failed”. Consider “TLTVNGPPIISSTQTQHALHGEKGQIKCFIRSTPPPDRIAWSWKENVLESGTSGRYTVETISTEEGVISTLTISNIVRADFQTIYNCTAWNSFGSDTEIIRLKEQGSEM”, for which the protein production result was “not failed”. Consider “TNHKGEKINVAVKTCKKDCTLDNKEKFMSEAVIMKNLDHPHIVKLIGIIEEEPTWIIMELYPYGELGHYLERNKNSLKVLTLVLYSLQICKAMAYLESINCVHRDIAVRNILVASPECVKLGDFGLSRYIEDEDYYKASVTRLPIKWMSPESINFRRFTTASDVWMFAVCMWEILSFGKQPFFWLENKDVIGVLEKGDRLPKPDLCPPVLYTLMTRCWDYDPSDRPRFTELVCSLSDVYQMEKDIAMEQERNARYRTPKILEPTAFQE”, for which the protein production result is listed as “failed”. “TPAVVERADADSQYEILVGGQRAGLTAYRDLGAQRVFFHTEIDEAFAGQGLASQLVQQALVDVRASGMRIVPVCPYVAKFLKRHDEFADITDPVTPEVLRWLEAQL”: the protein production entry is recorded as “failed”. As for “TPTEGLTIGDKAPTFTICGEKQLIDLKDLRGKYVLLSFWASYDALSRMQNATLNHAVAQADNVEMVSVSFDEYKSIFNETIKKDQISTSNCFVELAGVSSDLYQTYRLKRGFKNFLLDENGVIVAKDVTVSELSS”, the protein production result is “failed”.

For the sequence “TPVVFLGAGNLATNLAKALYRKGFRIMQVYSRTEESARTLANEVEAEYITDLKDVSNEARLYIISLKDAAFVELLPQITDGKQHALLVHTAGSIPMNIWEGHAERYGVFYPMQTFSKQREVDFREVPFFIEAKRPEDTELLKAVAGTLSDKVYEAD”, the protein production result is recorded as “failed”.

On to “TRGSAQMQPYFEELLLSLGPILKNITNSMVISGHTDSTPYAGSLFTNWELSSERALLARRVLERGGVKRDQVIQVTGMADQVPYITSDTAAAANRRIEALILTS”, for which the protein production entry was “failed”.

For the origin of these results see a protein production outcome set (Wang et al. 2014).
